Consider two substances from article PMC2139951.

Experiment [1] concerns the target Ran (recombinant, GTP form) (UniProt P62826).
For experiment [2] the target is unchanged. Briefly: inhibition of GAP-induced GTP hydrolysis on Ran.

Broadly, the Kd is the equilibrium constant for the complex coming apart.

“recombinant Xenopus RanBP7 with COOH-terminal his-tag (natural protein)”: the offrate in experiment [1] came to 2 h. Besides, in experiment [2], the Kd stood at 25 nM.

On to “recombinant importin-β (from UniProt Q14974 1-876) (natural protein; other documents disagree on this pair)”, for which the Kd in experiment [2] was found to be 0.8 nM.
